Patent US20140087995A1 (published 2014)
Numbered stars: 1 amine (or outer) side, 2 acyl side, 3 side chain; on linkers, the order of the positions; unused ones are H or OH. Bridge positions count the residues as written; N and C are the ends. Side chains are listed from the residue outwards. Ends that are not written are not given here. * marks the point of attachment. C20 diacid = O=C(O)CCCCCCCCCCCCCCCCCCC(=O)*; γGlu = O=C(O)[C@H](CCC(=O)[*:2])N[*:1]; AEEA = NCCOCCOCC(=O)O

T1: human amylin receptor (amylin 3(a) receptor: human calcitonin receptor plus RAMP-3) (human, UniProt P30988 25-474; O60896 24-148, limits assumed)
T1 sequence (looked up) 1: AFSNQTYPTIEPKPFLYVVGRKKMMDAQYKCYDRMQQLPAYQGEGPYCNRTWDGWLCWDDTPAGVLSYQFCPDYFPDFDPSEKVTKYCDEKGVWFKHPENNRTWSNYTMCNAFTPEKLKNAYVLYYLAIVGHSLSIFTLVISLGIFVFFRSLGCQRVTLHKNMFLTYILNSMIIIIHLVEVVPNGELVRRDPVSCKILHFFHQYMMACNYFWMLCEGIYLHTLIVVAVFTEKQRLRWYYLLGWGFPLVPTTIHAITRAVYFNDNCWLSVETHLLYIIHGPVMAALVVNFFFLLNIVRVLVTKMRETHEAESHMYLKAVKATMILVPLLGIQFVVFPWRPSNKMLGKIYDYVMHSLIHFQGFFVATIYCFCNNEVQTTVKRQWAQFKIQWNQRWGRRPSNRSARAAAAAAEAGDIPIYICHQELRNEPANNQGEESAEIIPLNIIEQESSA
T1 sequence (looked up) 2: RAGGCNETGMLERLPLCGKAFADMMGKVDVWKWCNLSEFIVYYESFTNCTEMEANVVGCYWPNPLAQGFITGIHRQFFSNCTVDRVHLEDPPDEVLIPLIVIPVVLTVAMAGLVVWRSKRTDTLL

T2: human calcitonin receptor (human, UniProt P30988 25-474)
T2 sequence (looked up): T1 sequence (looked up) 1

B1: N^ε-[2-[2-[2-[[(4S)-4-carboxy-4-(19-carboxynonadecanoylamino)butanoyl]amino]ethoxy]ethoxy]acetyl]Lys[Arg1,Arg17,Pro21,Pro27,His35]-h-amylin (peptide)
peptide: K([AEEA-γGlu-C20 diacid])RCNTATCATQRLANFLRHSSPNFGAIPSSTNVGSHTY-NH2
modifications: disulfide 3-8; N-terminus assumed
SMILES: CC[C@H](C)[C@H](NC(=O)[C@H](C)NC(=O)CNC(=O)[C@H](Cc1ccccc1)NC(=O)[C@H](CC(N)=O)NC(=O)[C@@H]1CCCN1C(=O)[C@H](CO)NC(=O)[C@H](CO)NC(=O)[C@H](Cc1c[nH]cn1)NC(=O)[C@H](CCCNC(=N)N)NC(=O)[C@H](CC(C)C)NC(=O)[C@H](Cc1ccccc1)NC(=O)[C@H](CC(N)=O)NC(=O)[C@H](C)NC(=O)[C@H](CC(C)C)NC(=O)[C@H](CCCNC(=N)N)NC(=O)[C@H](CCC(N)=O)NC(=O)[C@@H](NC(=O)[C@H](C)NC(=O)[C@@H]1CSSC[C@H](NC(=O)[C@H](CCCNC(=N)N)NC(=O)[C@@H](N)CCCCNC(=O)COCCOCCNC(=O)CC[C@H](NC(=O)CCCCCCCCCCCCCCCCCCC(=O)O)C(=O)O)C(=O)N[C@@H](CC(N)=O)C(=O)N[C@@H]([C@@H](C)O)C(=O)N[C@@H](C)C(=O)N[C@@H]([C@@H](C)O)C(=O)N1)[C@@H](C)O)C(=O)N1CCC[C@H]1C(=O)N[C@@H](CO)C(=O)N[C@@H](CO)C(=O)N[C@H](C(=O)N[C@@H](CC(N)=O)C(=O)N[C@H](C(=O)NCC(=O)N[C@@H](CO)C(=O)N[C@@H](Cc1c[nH]cn1)C(=O)N[C@H](C(=O)N[C@@H](Cc1ccc(O)cc1)C(N)=O)[C@@H](C)O)C(C)C)[C@@H](C)O
notes: also called compound 45
B2: N^α1-[2-[2-[2-[[2-[2-[2-[[(4S)-4-carboxy-4-(19-carboxynonadecanoylamino)butanoyl]amino]ethoxy]ethoxy]acetyl]amino]ethoxy]ethoxy]acetyl]-[Glu14,Arg17,Pro21,Pro27 … (peptide)
peptide: KCNTATCATQRLAEFLRHSSPNFGAIPSSTNVGSNTY
modifications: C20 diacid-gGlu-2xOEG on the alpha amino group of the N-terminal residue; Cys2-Cys7 disulfide and C-terminal amide as in human amylin
notes: also called compound 19
B3: N^ε-[(4S)-4-carboxy-4-(19-carboxynonadecanoylamino)butanoyl]Lys[Arg1,Arg17,Pro21,Pro27,His35]-h-amylin (peptide)
peptide: K([γGlu-C20 diacid])RCNTATCATQRLANFLRHSSPNFGAIPSSTNVGSHTY-NH2
modifications: disulfide 3-8; N-terminus assumed
SMILES: CC[C@H](C)[C@H](NC(=O)[C@H](C)NC(=O)CNC(=O)[C@H](Cc1ccccc1)NC(=O)[C@H](CC(N)=O)NC(=O)[C@@H]1CCCN1C(=O)[C@H](CO)NC(=O)[C@H](CO)NC(=O)[C@H](Cc1c[nH]cn1)NC(=O)[C@H](CCCNC(=N)N)NC(=O)[C@H](CC(C)C)NC(=O)[C@H](Cc1ccccc1)NC(=O)[C@H](CC(N)=O)NC(=O)[C@H](C)NC(=O)[C@H](CC(C)C)NC(=O)[C@H](CCCNC(=N)N)NC(=O)[C@H](CCC(N)=O)NC(=O)[C@@H](NC(=O)[C@H](C)NC(=O)[C@@H]1CSSC[C@H](NC(=O)[C@H](CCCNC(=N)N)NC(=O)[C@@H](N)CCCCNC(=O)CC[C@H](NC(=O)CCCCCCCCCCCCCCCCCCC(=O)O)C(=O)O)C(=O)N[C@@H](CC(N)=O)C(=O)N[C@@H]([C@@H](C)O)C(=O)N[C@@H](C)C(=O)N[C@@H]([C@@H](C)O)C(=O)N1)[C@@H](C)O)C(=O)N1CCC[C@H]1C(=O)N[C@@H](CO)C(=O)N[C@@H](CO)C(=O)N[C@H](C(=O)N[C@@H](CC(N)=O)C(=O)N[C@H](C(=O)NCC(=O)N[C@@H](CO)C(=O)N[C@@H](Cc1c[nH]cn1)C(=O)N[C@H](C(=O)N[C@@H](Cc1ccc(O)cc1)C(N)=O)[C@@H](C)O)C(C)C)[C@@H](C)O
notes: also called compound 44
B4: N^-1-[(4S)-4-carboxy-4-(19-carboxynonadecanoylamino)butanoyl]-Gly[Arg1,Arg17,Pro21,Pro27]-h-amylin (peptide)
peptide: {C20 diacid-γGlu}-GRCNTATCATQRLANFLRHSSPNFGAIPSSTNVGSNTY-NH2
modifications: disulfide 3-8
SMILES: CC[C@H](C)[C@H](NC(=O)[C@H](C)NC(=O)CNC(=O)[C@H](Cc1ccccc1)NC(=O)[C@H](CC(N)=O)NC(=O)[C@@H]1CCCN1C(=O)[C@H](CO)NC(=O)[C@H](CO)NC(=O)[C@H](Cc1c[nH]cn1)NC(=O)[C@H](CCCNC(=N)N)NC(=O)[C@H](CC(C)C)NC(=O)[C@H](Cc1ccccc1)NC(=O)[C@H](CC(N)=O)NC(=O)[C@H](C)NC(=O)[C@H](CC(C)C)NC(=O)[C@H](CCCNC(=N)N)NC(=O)[C@H](CCC(N)=O)NC(=O)[C@@H](NC(=O)[C@H](C)NC(=O)[C@@H]1CSSC[C@H](NC(=O)[C@H](CCCNC(=N)N)NC(=O)CNC(=O)CC[C@H](NC(=O)CCCCCCCCCCCCCCCCCCC(=O)O)C(=O)O)C(=O)N[C@@H](CC(N)=O)C(=O)N[C@@H]([C@@H](C)O)C(=O)N[C@@H](C)C(=O)N[C@@H]([C@@H](C)O)C(=O)N1)[C@@H](C)O)C(=O)N1CCC[C@H]1C(=O)N[C@@H](CO)C(=O)N[C@@H](CO)C(=O)N[C@H](C(=O)N[C@@H](CC(N)=O)C(=O)N[C@H](C(=O)NCC(=O)N[C@@H](CO)C(=O)N[C@@H](CC(N)=O)C(=O)N[C@H](C(=O)N[C@@H](Cc1ccc(O)cc1)C(N)=O)[C@@H](C)O)C(C)C)[C@@H](C)O
notes: also called compound 46
B5: N{Alpha-1}-[(4S)-4-carboxy-4-(19-carboxynonadecanoylamino)butanoyl]-[Glu14,Arg17,Pro21,Pro27,Lys34]-h-amylin (peptide)
peptide: {C20 diacid-γGlu}-KCNTATCATQRLAEFLRHSSPNFGAIPSSTNVGKNTY-NH2
modifications: disulfide 2-7
SMILES: CC[C@H](C)[C@H](NC(=O)[C@H](C)NC(=O)CNC(=O)[C@H](Cc1ccccc1)NC(=O)[C@H](CC(N)=O)NC(=O)[C@@H]1CCCN1C(=O)[C@H](CO)NC(=O)[C@H](CO)NC(=O)[C@H](Cc1c[nH]cn1)NC(=O)[C@H](CCCNC(=N)N)NC(=O)[C@H](CC(C)C)NC(=O)[C@H](Cc1ccccc1)NC(=O)[C@H](CCC(=O)O)NC(=O)[C@H](C)NC(=O)[C@H](CC(C)C)NC(=O)[C@H](CCCNC(=N)N)NC(=O)[C@H](CCC(N)=O)NC(=O)[C@@H](NC(=O)[C@H](C)NC(=O)[C@@H]1CSSC[C@H](NC(=O)[C@H](CCCCN)NC(=O)CC[C@H](NC(=O)CCCCCCCCCCCCCCCCCCC(=O)O)C(=O)O)C(=O)N[C@@H](CC(N)=O)C(=O)N[C@@H]([C@@H](C)O)C(=O)N[C@@H](C)C(=O)N[C@@H]([C@@H](C)O)C(=O)N1)[C@@H](C)O)C(=O)N1CCC[C@H]1C(=O)N[C@@H](CO)C(=O)N[C@@H](CO)C(=O)N[C@H](C(=O)N[C@@H](CC(N)=O)C(=O)N[C@H](C(=O)NCC(=O)N[C@@H](CCCCN)C(=O)N[C@@H](CC(N)=O)C(=O)N[C@H](C(=O)N[C@@H](Cc1ccc(O)cc1)C(N)=O)[C@@H](C)O)C(C)C)[C@@H](C)O
notes: also called compound 36

Molecular target: T1, human amylin receptor (amylin 3(a) …)
Experiment: cell-based or functional assay

| Binder | hAmylin-R funct. EC50 [nM] |
| --- | --- |
| B1 | 0.594 |
| B2 | 0.307 |
| B3 | 0.198 |
| B4 | 0.088 |
| B5 | 0.189 |

Molecular target: T2, human calcitonin receptor
Experiment: cell-based or functional assay

| Binder | Ratio hCT/hAmylin funct. (hCTR EC50 against hAmylin-R EC50) | hCTR funct. EC50 [nM] |
| --- | --- | --- |
| B1 | 17 | 10.1 |
| B2 | 17.4 | 5.32 |
| B3 | 24 | 4.75 |
| B4 | 10.2 | 0.899 |
| B5 | 6.8 | 1.28 |
